Article PMC11674933, “Discovery of Carbonic Anhydrase 9 as a Novel CLEC2 Ligand in a Cellular Interactome Screen” (Cells, 2024)

Molecular target: CA9^38−414-His-avi (human, UniProt Q16790, biotin (biotinylated))
Experiment: AlphaScreen or HTRF; validation of the AlphaLISA set-up (Figure S6) with tagged G250 against a control library protein; CA9 on the beads at 15 nM or 60 nM
Details: one partner purified

binding result: binds
B1: 2E3 tagged Girentuximab (G250) (antibody, V domains shown)
VH: DVKLVESGGGLVKLGGSLKLSCAASGFTFSNYYMSWVRQTPEKRLELVAAINSDGGITYYLDTVKGRFTISRDNAKNTLYLQMSSLKSEDTALFYCARHRSGYFSMDYWGQGTSVTVSS
VL: DIVMTQSQRFMSTTVGDRVSITCKASQNVVSAVAWYQQKPGQSPKLLIYSASNRYTGVPDRFTGSGSGTDFTLTISNMQSEDLADFFCQQYSNYPWTFGGGTKLEIK
notes: tagged versions of Girentuximab (G250); also called anti-CA9; G250 constructs
